This note sets out measurements from PMC3314626, “Crystal Structures of the Tetratricopeptide Repeat Domains of Kinesin Light Chains: Insight into Cargo Recognition Mechanisms” (PLoS ONE, 2012).

In this experiment the target is KLC1 TPR domain (kinesin light chain 1 tetratricopeptide repeat domain) (human) (UniProt Q07866). Put plainly: ITC; protein-protein: 15 uM KLC1-TPR and 160 uM ALC1 protein; 25 C; 30 mM HEPES 7.4, 200 mM NaCl, 0.5 mM TCEP; one-site binding model. Background: Isothermal titration calorimetry measures the heat released or taken up as one component is titrated into another.

“cytosolic domain of ALC1 protein (alcadein-1) (domain or fragment)” registered a Kd of 2400 nM and a stoichiometry N of 0.85.

The term Kd denotes the free concentration of one partner at which half of the binding sites on the other are occupied at equilibrium, for simple one-to-one binding. A low value points to tighter binding. For orientation: stoichiometry N means the number of molecules, sites or subunits per partner or assembly.
